The values below are quoted from earlier work in patent US9421247B2, “Biodegradable nanoparticles as novel hemoglobin-based oxygen carriers and methods of using the same” (Vindico NanoBio Technology Inc., priority 2010, dated 2016).

Take “free hemoglobin: cell-free hemoglobin infused into animals”: the “adverse physiological effects on infusion/transfusion into animals” value was “significant vasoconstriction and kidney damage”.

As for “PolyHeme™: commercial acellular HBOC (Northfield Lab, Evanston, Ill., USA)”, the “adverse physiological effects on infusion/transfusion into animals” value was “induce vasoconstriction”.
